Results on 31 sequences are retold here after the supplement of paper PMC9170038.

This series concerns MS2 coat protein. Kind of series: apparent KD of MS2 coat protein; designed switch direction (-1 OFF switch, 1 ON switch): -1; higher = weaker reporter binding. The essentials:
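Each step of the titration lasted 0.8–1.5 h at the lowest concentration and 10–20 min at the highest. The protein, SNAP-549-labelled MS2 coat protein, went from 0.7 or 1.5 nM doubling to 3 µM over RNA switches transcribed on Illumina chips by stalled E. coli RNA polymerase. Normalised cluster fluorescence was curve-fitted, and the per-design median over clusters is given as apparent KD.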

The mark [1] stands for this setting: input ligand: microRNA oligo, concentration not stated.
The mark [2] stands for this setting: Eterna round: R95, input ligand: microRNA oligo, concentration not stated.
Where [3] appears, read: Eterna round: R95, input ligand: FMN 200 uM.
Where [4] appears, read: Eterna round: R95, input ligand: none.

As to “CAACCGAAUCAGUGAAUGCCGACAUGAGGAUCACCCAUGUGUGAGGAUAUUUUAGUAGAGAACUAAAAGAAGGCACCUGGAAAG [Eternabot solution 20] (Eterna round: R96, puzzle: Exclusion NG 3)”, the “apparent KD of MS2 coat protein” value (input ligand: FMN 200 uM) amounted to 0.0702 µM, the “apparent KD of MS2 coat protein” value under setting [1] worked out at 0.0224 µM and the “apparent KD of MS2 coat protein” value (input ligand: none) came out at 0.0398 µM.

As for “AAUUUACAUGAGGAUCACCCAUGUGAGGAUAUGGAUUCGCUGGCCGUAGCCAGUGGAUCCAGAAGGCGCAUGAU [JL-ex1-4.12] (Eterna round: R97, puzzle: Exclusion 1)”, the “apparent KD of MS2 coat protein” value is, setting by setting: (input ligand: FMN 200 uM) 0.402 µM; (input ligand: none) 0.0948 µM.

With “GCCGAUUAAGUCAGGAUAUACCUAUGGAUACAUAGGUAGAAGGGACAUGAGGAUCACCCAUGUUCCUCAGCGGC [Fiskers BMX 4 - 14] (puzzle: Brourd's mod of Exclusion 4)”, the “apparent KD of MS2 coat protein” value under setting [2] was found to be 0.0145 µM.

On to “CCAGGGCACAAUUAAACGCCCUAACAUGAGGAUCACCCAUGUCAGGAUAUGUAGGCAAAGACCCUACAGAAGGGACAUGUCCUA [Xegeat] (Eterna round: R96, puzzle: Exclusion NG 3)”, for which the “apparent KD of MS2 coat protein” value runs as follows: (input ligand: FMN 200 uM) 0.217 µM; under setting [1], 0.0761 µM; (input ligand: none) 0.0499 µM.

For “AACAGGUCAGGAUAUACAUGAGGAUCACCCAUGUAGACUUCUGGUCUACCGAGACCGUGUAGAAGGGACCUGAA [Exclusion 3 (MOD3 of #98 Marzena11)] (Eterna round: R97, puzzle: Exclusion 3)”, the “apparent KD of MS2 coat protein” value is, setting by setting: (input ligand: FMN 200 uM) 0.104 µM; (input ligand: none) 0.0357 µM.

In the case of “UUUACAAGCUAUUGAUCCCACAUGAGGAUCACCCAUGUUCCUGGCCGUGAGGCUAGGUAAACAAUAGCUCGUCUUAU [Sensor-V1 #41] (Eterna round: R97, puzzle: Sensor, turn-off variant 1)”, the “apparent KD of MS2 coat protein” value by setting is: (input ligand: FMN 200 uM) 0.0984 µM; (input ligand: none) 0.0951 µM.

For “UUAUUAAGUGUGAGGAUAUGCUGGUCCUUGGAUCAGCAGAAGGCACAUGAGGAUCACCCAUGUACUUUAUAAAU [JL bmx4 3.05] (puzzle: Brourd's mod of Exclusion 4)”, under setting [2], the “apparent KD of MS2 coat protein” value came out at 0.0146 µM.

Consider “CGGUGACGGGUGAGGAUAUCGUGUUCGAAAGAACGUGAGAAGGCACAUGAGGAUCACCCAUGUGAUCCUCAUCG [Omei Ex4B A31] (Eterna round: R97, puzzle: Brourd's mod of Exclusion 4)”, for which the “apparent KD of MS2 coat protein” value by setting is: (input ligand: FMN 200 uM) 0.412 µM; (input ligand: none) 0.0561 µM.

Turning to “AGUAGUUGUUUCCGUUCUUACAUGAGGAUCACCCAUGUUUCUUGUCGUGCUCGCGUUGCUCGUCAGACUUCCUGUUG [salish99_TOv1_r3_063] (Eterna round: R96, puzzle: Sensor v3, turn-off variant 1)”, the “apparent KD of MS2 coat protein” value came to 0.0875 µM (input ligand: FMN 200 uM), 0.0495 µM under setting [1] and 0.0766 µM (input ligand: none).

As to “GUCGUGUAAGGAUAUGCAUCGAGGUAGCGAAUGUUGCAGGUGUAGAAGGUACAUGAGGAUCACCCAUGUAAUGU [Exclusion 4 - An extended Mod of Jieux] (puzzle: Exclusion 4)”, the “apparent KD of MS2 coat protein” value under setting [2] was 0.0202 µM.

In the case of “AGCGCCAUCGUGAGAUGGCGUAUUACAUGAGGAUCACCCAUGUAGGAUAUCGAUUGCUUUGCAGUCGAGAAGGACAUGUUCUAG [JL ENG3 3.80 Mod A] (Eterna round: R96, puzzle: Exclusion NG 3)”, the “apparent KD of MS2 coat protein” value by setting is: (input ligand: FMN 200 uM) 0.0955 µM; under setting [1], 0.0359 µM; (input ligand: none) 0.0606 µM.

Consider “ACAGUGUUAGGAUAUGUGUGAGUUAGUCUCGACUAGUCGAUGCAGAAGGAACAUGAGGAUCACCCAUGUAGAUC [EX4 #80] (Eterna round: R97, puzzle: Exclusion 4)”, for which the “apparent KD of MS2 coat protein” value (input ligand: FMN 200 uM) turned out to be 0.136 µM and the “apparent KD of MS2 coat protein” value (input ligand: none) was 0.064 µM.

In the case of “AAAAGGCGAGGAUAUACAGACCUCGGAAAAUCAAAGCAGAGACAUGAGGAUCACCCAUGUAGAAGGCGCAACAA [Geerbiorer] (Eterna round: R97, puzzle: Exclusion 2)”, the “apparent KD of MS2 coat protein” value by setting is: (input ligand: FMN 200 uM) 0.0208 µM; (input ligand: none) 0.0159 µM.

As to “ACAAGCGUUUUGCUCGUAAAGUAGGAACGCGAGAGCGGCACAUGAGGAUCACCCAUGUAGAGGCAGUUGGUGGAGAU [JR_SV3TOV2_Sub030] (puzzle: Sensor v3, turn-off variant 2)”, the “apparent KD of MS2 coat protein” value runs as follows: under setting [3], 0.0245 µM; under setting [2], 0.0242 µM; under setting [4], 0.0253 µM.

Turning to “UUUGUUUAUGUAGGAUAUGCCUGGCGUGCCUUCGCAGAAGGACAUGAGGAUCACCCAUGUAUUGCGGUCUGCGUUCAGAUCGCU [salish99_ExNG1_r4_030] (Eterna round: R96, puzzle: Exclusion NG 1)”, the “apparent KD of MS2 coat protein” value stood at 0.0468 µM (input ligand: FMN 200 uM), 0.0291 µM under setting [1] and 0.0418 µM (input ligand: none).

As to “CUGAAAGACGAAGGAUAUCCAGGCGCCGGCGUAGGAGAAGGUCGUCCGGGUGUCCUAGAACUUGAGGAUCACCCAAGUAGAAGA [Mutated MS2 EX1.14] (Eterna round: R96, puzzle: Exclusion NG 1)”, the “apparent KD of MS2 coat protein” value (input ligand: FMN 200 uM) is 0.0368 µM, the “apparent KD of MS2 coat protein” value under setting [1] was 0.0249 µM and the “apparent KD of MS2 coat protein” value (input ligand: none) came to 0.0531 µM.

In the case of “UUUGUUGUUGUGAGGAUAUCGUUGUUAUUUUGAAACGAGAAGGCACAUGAGGAUCACCCAUGUUUGUUGAUGGU [JR_BMOE4_Sub060] (puzzle: Brourd's mod of Exclusion 4)”, under setting [2], the “apparent KD of MS2 coat protein” value turned out to be 0.0415 µM.

Turning to “UUCUUGGCAGGAUAUGCUUUUUUAGACAUGAGGAUCACCCAUGUGAUGAUUAUUGGUUUUGCAGAAGGGCCUUAAU [JR_E5_Sub041] (puzzle: Exclusion 5)”, under setting [2], the “apparent KD of MS2 coat protein” value came to 0.0494 µM.

In the case of “CCAUGAUAAGGAUAUUGAAGGUUCGACAUGAGGAUCACCCAUGUUAUGUUGGAAAAGGGACAAGAAGGUAUGAAUU [salish99_ex5_r4_220] (Eterna round: R97, puzzle: Exclusion 5)”, the “apparent KD of MS2 coat protein” value (input ligand: FMN 200 uM) came out at 0.0347 µM and the “apparent KD of MS2 coat protein” value (input ligand: none) amounted to 0.0351 µM.

Turning to “GCCAGGUGAUUCGGCCAUGACAUGAGGAUCACCCAUGUAACAAUCUAGCAAGCAAACAAGGCCGUCGUGUAGGUAUU [Rigeusarla] (Eterna round: R96, puzzle: Sensor v2, turn-off variant)”, the “apparent KD of MS2 coat protein” value (input ligand: FMN 200 uM) was 0.078 µM, the “apparent KD of MS2 coat protein” value under setting [1] came to 0.0611 µM and the “apparent KD of MS2 coat protein” value (input ligand: none) came to 0.0767 µM.

Regarding “AAAUCACAUGAGGAUCACCCAUGUGAGGAUAUGAUACUAUGUACUUCGGUACAUAGUAUCAGAAGGCAUAUGGA [Ex1-3: 32] (Eterna round: R96, puzzle: Exclusion 1)”, the “apparent KD of MS2 coat protein” value reads like this: (input ligand: FMN 200 uM) 0.0394 µM; under setting [1], 0.0206 µM; (input ligand: none) 0.0237 µM.

As for “GGUUGACAUGAGGAUCACCCAUGUGAGGAUAUGCGAGAGAAAAAAGUGAGGAAGAAAAGUAGAAGGCGCUGACG [salish99-ex1_r3_001] (puzzle: Exclusion 1)”, the “apparent KD of MS2 coat protein” value by setting is: under setting [3], 0.0599 µM; under setting [2], 0.049 µM; under setting [4], 0.0571 µM.

On to “CGGAGUUAGGAGGAUAUGACGAACGCACGUCGUUCAGAAGGCCUAACAUGAGGAUCACCCAUGUGCUUAACACG [Eternabot (L2) Solution 59] (Eterna round: R97, puzzle: Exclusion 6)”, for which the “apparent KD of MS2 coat protein” value reads like this: (input ligand: FMN 200 uM) 0.0487 µM; (input ligand: none) 0.0357 µM.

“UAUAUAUAGUAAGGAUAUGUAUUAAUUUAAUAAACAGAAGGUACUGACAUGAGGAUCACCCAUGUUUUAGUGUGGGCAUGUAGA [JMF's solution 83] (Eterna round: R96, puzzle: Exclusion NG 1)”: the “apparent KD of MS2 coat protein” value under setting [1] is 0.0643 µM.

As to “UUGAUGUCAUCAGGAUAUAGUAUUUAAGACAUAUAUUUUUUCAAACAUGAGGAUCACCCAUGUCGCUAGAAGGGAUUAUAGAUU [JR_ExcNG2_Sub082] (Eterna round: R96, puzzle: Exclusion NG 2)”, the “apparent KD of MS2 coat protein” value under setting [1] was found to be 0.0296 µM.

Take “CCACGACAUGAGGAUCACCCAUGUGAGGAUAUGACCUGAAAAGCGUGAGCAGUUUGUAUCAGAAGGCGCGUAGG [salish99_ex1_r4_067] (Eterna round: R97, puzzle: Exclusion 1)”: the “apparent KD of MS2 coat protein” value turned out to be 0.0359 µM (input ligand: FMN 200 uM) and 0.0442 µM (input ligand: none).

As for “UAUUAGCAAGCGAGAUCCCACAUGAGGAUCACCCAUGUAAAGCAUCCAGAAUUACUGGGUGCAAAAGCUCGUCUUAU [Winner reversed engineered 6] (Eterna round: R97, puzzle: Sensor, turn-off variant 1)”, the “apparent KD of MS2 coat protein” value worked out at 0.0294 µM (input ligand: FMN 200 uM) and 0.0317 µM (input ligand: none).

Consider “ACCAUUUUACGAUAUGUGCACAUGAGGAUCACCCAUGUUCCGAUAAACAUUUGAAGUACAGCAGGCUGCUCGAUCUG [Eternabot (L2) Solution 45] (Eterna round: R97, puzzle: Sensor, turn-off variant 1)”, for which the “apparent KD of MS2 coat protein” value by setting is: (input ligand: FMN 200 uM) 0.0942 µM; (input ligand: none) 0.0874 µM.

With “GGUCAUCAAGUCAGGAUAUCGUCUGAUCAAUCAGGCGAGAAGGGACAUGAGGAUCACCCAUGUCGACUCAUCAG [Ex4 #7] (Eterna round: R97, puzzle: Brourd's mod of Exclusion 4)”, the “apparent KD of MS2 coat protein” value runs as follows: (input ligand: FMN 200 uM) 0.0853 µM; (input ligand: none) 0.0194 µM.

As for “GUUAGUUAAGGAUAUACAGGGAGCCGCGGCGUCUCGCCGCAACAUGAGGAUCACCCAUGUAGAAGGUAGCCAUU [JL ViennaUCT Enbibi mod 1] (puzzle: Exclusion 2)”, under setting [2], the “apparent KD of MS2 coat protein” value was determined as 0.0255 µM.

Take “GAGCUGUGAGGAUAUACAUGAGGAUCACCCAUGUUAAGGAAGUCGGGAUUAAUUUGGUGUAGAAGGCGCUUAUU [JR_Ex3_Sub020] (Eterna round: R97, puzzle: Exclusion 3)”: the “apparent KD of MS2 coat protein” value (input ligand: FMN 200 uM) amounted to 0.044 µM and the “apparent KD of MS2 coat protein” value (input ligand: none) worked out at 0.0425 µM.
